Assay results reported in publication PMC5703946, “Modification and functional adaptation of the MBF1 gene family in the lichenized fungus Endocarpon pusillum under environmental stress” (Scientific Reports, 2017).

Target: T1, His-yTBP (yeast TATA-box-binding protein) (S. cerevisiae, UniProt P13393 1-240)
T1 sequence (looked up): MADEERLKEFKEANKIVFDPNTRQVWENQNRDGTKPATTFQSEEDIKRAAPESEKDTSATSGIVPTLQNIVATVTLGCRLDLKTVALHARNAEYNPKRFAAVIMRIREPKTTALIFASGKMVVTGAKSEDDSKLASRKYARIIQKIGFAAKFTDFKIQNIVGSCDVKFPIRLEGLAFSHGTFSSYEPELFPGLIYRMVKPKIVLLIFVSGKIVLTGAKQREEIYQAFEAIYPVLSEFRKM
Assay: pull-down; His-yTBP held on Ni-NTA agarose beads (from soluble E. coli lysate, washed three times); equal amounts of purified GST-MBF1 proteins or purified GST incubated with the beads for 4 h at 4 °C; beads washed three times; detected by immunoblot (Wes) with anti-His and anti-GST antibodies
Settings: both partners purified

binding result: binds
B1: GST-yMBF1 (Saccharomyces cerevisiae multiprotein-bridging factor 1) (natural protein, S. cerevisiae, UniProt O14467 1-151, looked up)
chain: MSDWDTNTIIGSRARAGGSGPRANVARSQGQINAARRQGLVVSVDKKYGSTNTRGDNEGQRLTKVDRETDIVKPKKLDPNVGRAISRARTDKKMSQKDLATKINEKPTVVNDYEAARAIPNQQVLSKLERALGVKLRGNNIGSPLGAPKKK
notes: MBF1 of Saccharomyces cerevisiae (amino acids 1 to 151 by the domain limits in the methods); source: E. coli BL21, purified (glutathione agarose beads, eluted)
